Measured values as given in PMC10187669.
Where two headings read alike, the source gives them in different places.

Legend:
ZBP1 KH3-KH4 (ZBP1KH34) [1] = biological target: T1, ZBP1 KH3-KH4 (ZBP1KH34) (Gallus gallus, UniProt O42254 404-561); assay: EMSA
ZBP1 KH3-KH4 (ZBP1KH34) [2] = biological target: T1, ZBP1 KH3-KH4 (ZBP1KH34); assay: EMSA; remark: listed apart in the source

T1 sequence (O42254 404-561): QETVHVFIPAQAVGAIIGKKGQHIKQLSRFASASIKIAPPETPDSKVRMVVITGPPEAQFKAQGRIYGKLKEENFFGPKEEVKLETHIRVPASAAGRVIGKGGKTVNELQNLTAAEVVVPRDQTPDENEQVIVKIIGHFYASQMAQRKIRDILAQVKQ

**Q.** Does ACCGGACUGUUACCAACACCCACACCCC (ssRNA, m6A at position 6) [B oligonucleotide: zipcode m6A site 1202 (GGm6ACU)] bind (ZBP1 KH3-KH4 (ZBP1KH34) [1])?
**A.** binds

**Q.** Does ACCGGACUGUUACCAACACCCACACCCC (ssRNA) [A oligonucleotide: chicken beta-actin zipcode unmodified] bind (ZBP1 KH3-KH4 (ZBP1KH34) [2])?
**A.** binds
